The record followed here is publication PMC8690526, “Expression, purification and characterisation of a human anti-CDK4 single-chain variable fragment antibody” (BMC Biotechnology, 2021).

Holding throughout (settings): both partners purified
The target in test [1] is T1, recombinant human cyclin-dependent kinase 4 (Homo sapiens, UniProt P11802).
T1 construct: cyclin-dependent kinase 4 (CDK4), human, recombinant; also called rhCDK4; CDK4
Put plainly: ELISA; non-competitive, affinity constant; plates coated with rhCDK4 at 8.0, 4.0, 2.0, 1.0 μg/mL; serial dilutions of AK2 (8.000-0.125 μg/mL); Kaff = (n − 1) / (n [Ab′] − [Ab]), n = [Ag] / [Ag′]; triplicates. For orientation: In an ELISA, binding on a coated surface is turned into a signal by an enzyme label.

For test [2], the target named is T2, recombinant human prolyl hydroxylase 2 (Homo sapiens, UniProt Q9GZT9).
T2 construct: prolyl hydroxylase 2 (PHD2), human, recombinant; also called rhPHD2; PHD2
T2 sequence (Q9GZT9 whole entry): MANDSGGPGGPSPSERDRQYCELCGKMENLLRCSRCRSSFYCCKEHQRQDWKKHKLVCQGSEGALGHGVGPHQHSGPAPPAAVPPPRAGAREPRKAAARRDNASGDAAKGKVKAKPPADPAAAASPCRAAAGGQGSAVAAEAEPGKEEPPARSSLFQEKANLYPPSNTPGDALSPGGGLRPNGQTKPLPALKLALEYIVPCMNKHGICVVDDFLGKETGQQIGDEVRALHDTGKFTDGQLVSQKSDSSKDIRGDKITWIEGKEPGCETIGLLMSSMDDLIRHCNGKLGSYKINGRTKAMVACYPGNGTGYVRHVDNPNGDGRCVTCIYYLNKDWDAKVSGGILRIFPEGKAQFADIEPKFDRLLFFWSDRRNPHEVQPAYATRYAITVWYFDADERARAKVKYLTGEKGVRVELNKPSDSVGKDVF
Put plainly: ELISA; non-competitive; plates coated with rhCDK4 or irrelevant proteins (rhPHD2, rhCOX-2, BSA); purified AK2 10 μg/mL in 3% non-fat milk in PBST, 2 h; detection by anti-V5 tag antibody and HRP-conjugated IgG, A492.

For test [3], the target named is T3, bovine serum albumin (Bos taurus, UniProt P02769).
T3 construct: serum albumin, bovine; also called BSA
T3 sequence (P02769 25-607): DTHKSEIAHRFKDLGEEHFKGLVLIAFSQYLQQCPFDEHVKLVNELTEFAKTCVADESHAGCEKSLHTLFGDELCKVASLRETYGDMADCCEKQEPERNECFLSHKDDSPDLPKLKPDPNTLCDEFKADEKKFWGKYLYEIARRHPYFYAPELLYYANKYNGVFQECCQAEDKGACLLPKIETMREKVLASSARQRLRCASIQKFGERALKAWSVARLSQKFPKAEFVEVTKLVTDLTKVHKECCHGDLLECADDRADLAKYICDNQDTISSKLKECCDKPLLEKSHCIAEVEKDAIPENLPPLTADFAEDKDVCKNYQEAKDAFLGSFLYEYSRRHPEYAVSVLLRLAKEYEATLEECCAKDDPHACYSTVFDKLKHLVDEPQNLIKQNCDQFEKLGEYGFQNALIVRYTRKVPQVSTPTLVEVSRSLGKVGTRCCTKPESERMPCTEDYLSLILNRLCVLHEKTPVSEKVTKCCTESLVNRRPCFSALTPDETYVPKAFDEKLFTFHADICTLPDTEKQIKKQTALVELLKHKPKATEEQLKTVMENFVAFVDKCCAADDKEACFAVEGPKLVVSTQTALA
Described as above.

T1 sequence (P11802 whole entry): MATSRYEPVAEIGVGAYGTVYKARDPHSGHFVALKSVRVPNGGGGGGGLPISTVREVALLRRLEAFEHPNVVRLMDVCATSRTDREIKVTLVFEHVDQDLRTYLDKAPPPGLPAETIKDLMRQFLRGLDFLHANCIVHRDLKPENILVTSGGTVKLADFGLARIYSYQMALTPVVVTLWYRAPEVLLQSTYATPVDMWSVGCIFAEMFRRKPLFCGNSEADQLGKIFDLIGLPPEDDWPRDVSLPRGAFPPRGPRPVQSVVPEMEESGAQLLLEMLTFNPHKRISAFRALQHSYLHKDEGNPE

B1: human anti-CDK4 single-chain variable fragment antibody AK2 (scFv, V domains shown)
VH: QVQLQESGGGLVQPGGSLRLSCAASGFTFSSYAMSWVRQAPGKGLEWVSAISGSGGSTYYADSVEGRFTISRDNSKNTLYLQMNSLRAEDTAVYYCARRLTGFDYWGQGTLVTVSS
VL: QSALTQPPSASGSPGQSVTISCTGTSSDVGGYNYVSWYQQHPGKAPKLMIYDVSKRPSGVSNRFSGSKSGNTASLTIFGLQAEDEADYYCSSYTSSSTLVFGGGTKLTVL
notes: AK2-VH; linker peptide between the variable regions; AK2-VL; A pelB leader stands upstream of AK2 in the phagemid; About 30 kD on SDS-PAGE; also called soluble AK2; purified AK2; source: E. coli HB2151 (AK2/HB2151), IPTG-induced, secreted into the culture supernatant; used as culture supernatant or purified (ammonium sulphate precipitation, Ni2+-NTA, PD-10 desalting); …
As to B1, the Ka in test [1] is 2.48e+07 M⁻¹. The binding result in test [2] and in test [3] was “no binding (tested: 10 μg/mL AK2)” throughout.
